Reference: paper doi:10.1101/2022.10.18.512811 (bioRxiv, 2022)
Where two headings read alike, the source gives them in different places. Blank lines part the entries; values can stand above or below the molecule they belong to.

Columns and labels:
[1] = molecular target: His-tagged NlpE N-terminal domain (E. coli); assay: cross-linking
[2] = molecular target: the molecule itself; assay: dimer band on denaturing SDS-PAGE
[3] = molecular target: the molecule itself; assay: dimer band on denaturing SDS-PAGE; remark: listed apart in the source

stoichiometry N [1]: 2
Molecule: His-tagged NlpE N-terminal domain (domain or fragment)

B1: C-terminally His-tagged WT NlpE expressed from pTrc99A (natural protein, E. coli, UniProt P40710 21-236, looked up)
chain: CNNRAEVDTLSPAQAAELKPMPQSWRGVLPCADCEGIETSLFLEKDGTWVMNERYLGAREEPSSFASYGTWARTADKLVLTDSKGEKSYYRAKGDALEMLDREGNPIESQFNYTLEAAQSSLPMTPMTLRGMYFYMADAATFTDCATGKRFMVANNAELERSYLAARGHSEKPVLLSVEGHFTLEGNPDTGAPTKVLAPDTAGKFYPNQDCSSLGQ
modifications: lipid-modified N-terminal cysteine (Cys21)
stoichiometry N [2]: 2

B2: purified, soluble, C-terminal His×6-tagged NlpE (natural protein, E. coli, UniProt P40710 21-236, looked up)
chain: CNNRAEVDTLSPAQAAELKPMPQSWRGVLPCADCEGIETSLFLEKDGTWVMNERYLGAREEPSSFASYGTWARTADKLVLTDSKGEKSYYRAKGDALEMLDREGNPIESQFNYTLEAAQSSLPMTPMTLRGMYFYMADAATFTDCATGKRFMVANNAELERSYLAARGHSEKPVLLSVEGHFTLEGNPDTGAPTKVLAPDTAGKFYPNQDCSSLGQ
stoichiometry N [3]: 2
